From patent US20140072613A1, “Compositions and Methods for Treating Cutaneous Scarring” (priority 2012, published 2014)

What was measured:
Assay in all cases: biochemical
Type in all cases: biochemical
266 human kinases [1] = biological target: 266 human kinases (Homo sapiens, UniProt P00533); conditions: EGFR(h); 100 μM
Method in brief: (§1)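 Inhibition was judged from reduced transfer of labelled phosphate from ATP to a positively charged substrate, which was captured on a negatively charged membrane and quantified by scintillation counting against a 100% activity control.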

266 human kinases [2] = biological target: T1, 266 human kinases (Homo sapiens, UniProt P29322); conditions: EphA8(h); 100 μM
T1 sequence (P29322 28-1005): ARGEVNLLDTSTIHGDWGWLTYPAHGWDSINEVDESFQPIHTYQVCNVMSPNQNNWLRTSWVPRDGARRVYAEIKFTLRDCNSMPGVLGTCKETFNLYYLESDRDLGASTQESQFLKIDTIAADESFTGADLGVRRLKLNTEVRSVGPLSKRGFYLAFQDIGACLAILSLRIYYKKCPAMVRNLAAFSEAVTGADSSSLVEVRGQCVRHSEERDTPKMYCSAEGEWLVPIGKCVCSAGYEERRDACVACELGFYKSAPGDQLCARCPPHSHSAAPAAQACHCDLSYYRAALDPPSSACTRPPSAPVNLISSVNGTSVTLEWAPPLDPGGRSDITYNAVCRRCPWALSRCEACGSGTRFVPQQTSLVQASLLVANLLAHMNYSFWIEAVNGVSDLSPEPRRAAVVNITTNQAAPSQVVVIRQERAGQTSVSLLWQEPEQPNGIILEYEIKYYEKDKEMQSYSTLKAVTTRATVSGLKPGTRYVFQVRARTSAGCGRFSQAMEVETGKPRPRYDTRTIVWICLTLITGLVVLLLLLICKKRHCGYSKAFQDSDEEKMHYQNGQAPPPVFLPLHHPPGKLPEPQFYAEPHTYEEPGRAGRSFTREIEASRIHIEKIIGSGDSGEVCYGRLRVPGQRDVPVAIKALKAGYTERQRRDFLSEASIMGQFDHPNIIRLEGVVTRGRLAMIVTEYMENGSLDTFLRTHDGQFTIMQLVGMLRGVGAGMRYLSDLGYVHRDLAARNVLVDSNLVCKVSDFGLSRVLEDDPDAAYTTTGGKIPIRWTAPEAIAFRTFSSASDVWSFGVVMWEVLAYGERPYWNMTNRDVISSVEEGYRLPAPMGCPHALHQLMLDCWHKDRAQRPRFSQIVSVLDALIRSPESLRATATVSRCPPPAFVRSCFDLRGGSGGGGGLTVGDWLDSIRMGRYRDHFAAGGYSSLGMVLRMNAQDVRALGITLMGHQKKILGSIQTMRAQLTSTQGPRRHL
Method in brief: as §1

266 human kinases [3] = biological target: 266 human kinases (Homo sapiens, UniProt P54756); conditions: EphA5(h); 100 μM
266 human kinases (Homo sapiens, UniProt P54756), sequence (P54756 25-1037): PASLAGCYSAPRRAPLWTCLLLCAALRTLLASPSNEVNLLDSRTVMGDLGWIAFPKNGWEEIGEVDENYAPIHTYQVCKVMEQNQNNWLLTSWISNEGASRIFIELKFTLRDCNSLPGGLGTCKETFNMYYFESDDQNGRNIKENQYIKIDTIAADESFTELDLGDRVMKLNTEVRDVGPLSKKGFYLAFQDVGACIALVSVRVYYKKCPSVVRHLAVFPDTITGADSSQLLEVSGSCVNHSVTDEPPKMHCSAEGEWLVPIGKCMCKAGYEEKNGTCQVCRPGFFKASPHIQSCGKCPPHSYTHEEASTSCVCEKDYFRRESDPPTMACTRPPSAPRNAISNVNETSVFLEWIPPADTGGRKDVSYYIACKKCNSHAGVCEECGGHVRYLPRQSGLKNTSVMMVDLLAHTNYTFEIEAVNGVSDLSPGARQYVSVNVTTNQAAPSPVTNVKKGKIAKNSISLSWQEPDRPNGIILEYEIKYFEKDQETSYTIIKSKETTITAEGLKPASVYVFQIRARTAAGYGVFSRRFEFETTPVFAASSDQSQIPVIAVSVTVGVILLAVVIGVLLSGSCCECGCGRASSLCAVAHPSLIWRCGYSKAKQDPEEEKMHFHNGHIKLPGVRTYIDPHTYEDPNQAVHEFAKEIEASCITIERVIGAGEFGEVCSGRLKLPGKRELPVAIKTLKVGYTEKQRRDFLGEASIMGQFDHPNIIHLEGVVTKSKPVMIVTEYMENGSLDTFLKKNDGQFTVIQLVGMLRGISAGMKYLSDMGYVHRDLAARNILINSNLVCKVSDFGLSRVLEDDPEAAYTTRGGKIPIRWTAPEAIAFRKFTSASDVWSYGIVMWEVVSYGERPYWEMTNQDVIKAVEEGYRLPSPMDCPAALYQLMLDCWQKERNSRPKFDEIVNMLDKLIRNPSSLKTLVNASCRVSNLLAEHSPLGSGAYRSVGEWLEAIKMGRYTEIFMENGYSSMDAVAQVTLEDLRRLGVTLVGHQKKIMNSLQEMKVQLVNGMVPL
Method in brief: as §1

266 human kinases [4] = biological target: 266 human kinases (Homo sapiens, UniProt Q05397); conditions: FAK(h); 100 μM
266 human kinases (Homo sapiens, UniProt Q05397), sequence (Q05397 whole entry): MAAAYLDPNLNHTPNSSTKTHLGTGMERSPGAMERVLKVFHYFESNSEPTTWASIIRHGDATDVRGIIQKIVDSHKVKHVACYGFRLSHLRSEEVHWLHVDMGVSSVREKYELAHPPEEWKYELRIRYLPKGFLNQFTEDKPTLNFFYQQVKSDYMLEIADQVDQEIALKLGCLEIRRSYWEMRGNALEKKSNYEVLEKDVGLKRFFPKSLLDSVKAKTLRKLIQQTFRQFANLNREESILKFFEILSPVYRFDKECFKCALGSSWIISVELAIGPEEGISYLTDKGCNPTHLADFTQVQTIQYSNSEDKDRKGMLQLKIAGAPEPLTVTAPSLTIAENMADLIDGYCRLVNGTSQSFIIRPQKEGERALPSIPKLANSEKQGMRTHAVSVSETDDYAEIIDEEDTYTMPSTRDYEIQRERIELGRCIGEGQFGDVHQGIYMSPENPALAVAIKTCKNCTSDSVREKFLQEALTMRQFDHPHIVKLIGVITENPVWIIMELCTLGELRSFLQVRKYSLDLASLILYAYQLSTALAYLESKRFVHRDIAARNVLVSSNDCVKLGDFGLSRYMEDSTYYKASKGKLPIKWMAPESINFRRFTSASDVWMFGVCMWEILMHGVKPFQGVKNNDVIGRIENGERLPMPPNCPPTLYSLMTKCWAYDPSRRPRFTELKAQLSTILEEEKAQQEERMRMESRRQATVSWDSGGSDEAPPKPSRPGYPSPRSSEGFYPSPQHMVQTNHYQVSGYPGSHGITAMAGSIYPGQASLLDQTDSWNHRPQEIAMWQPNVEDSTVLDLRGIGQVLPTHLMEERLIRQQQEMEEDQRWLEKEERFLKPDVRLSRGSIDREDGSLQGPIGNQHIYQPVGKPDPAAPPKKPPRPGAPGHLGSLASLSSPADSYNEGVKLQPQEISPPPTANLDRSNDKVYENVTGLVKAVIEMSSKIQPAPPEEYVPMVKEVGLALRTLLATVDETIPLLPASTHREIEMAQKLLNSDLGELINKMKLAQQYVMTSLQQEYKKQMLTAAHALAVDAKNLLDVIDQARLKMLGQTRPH
Method in brief: as §1

266 human kinases [5] = biological target: 266 human kinases (Homo sapiens, UniProt Q07912); conditions: ACK1(h); 100 μM
266 human kinases (Homo sapiens, UniProt Q07912), sequence (Q07912 whole entry): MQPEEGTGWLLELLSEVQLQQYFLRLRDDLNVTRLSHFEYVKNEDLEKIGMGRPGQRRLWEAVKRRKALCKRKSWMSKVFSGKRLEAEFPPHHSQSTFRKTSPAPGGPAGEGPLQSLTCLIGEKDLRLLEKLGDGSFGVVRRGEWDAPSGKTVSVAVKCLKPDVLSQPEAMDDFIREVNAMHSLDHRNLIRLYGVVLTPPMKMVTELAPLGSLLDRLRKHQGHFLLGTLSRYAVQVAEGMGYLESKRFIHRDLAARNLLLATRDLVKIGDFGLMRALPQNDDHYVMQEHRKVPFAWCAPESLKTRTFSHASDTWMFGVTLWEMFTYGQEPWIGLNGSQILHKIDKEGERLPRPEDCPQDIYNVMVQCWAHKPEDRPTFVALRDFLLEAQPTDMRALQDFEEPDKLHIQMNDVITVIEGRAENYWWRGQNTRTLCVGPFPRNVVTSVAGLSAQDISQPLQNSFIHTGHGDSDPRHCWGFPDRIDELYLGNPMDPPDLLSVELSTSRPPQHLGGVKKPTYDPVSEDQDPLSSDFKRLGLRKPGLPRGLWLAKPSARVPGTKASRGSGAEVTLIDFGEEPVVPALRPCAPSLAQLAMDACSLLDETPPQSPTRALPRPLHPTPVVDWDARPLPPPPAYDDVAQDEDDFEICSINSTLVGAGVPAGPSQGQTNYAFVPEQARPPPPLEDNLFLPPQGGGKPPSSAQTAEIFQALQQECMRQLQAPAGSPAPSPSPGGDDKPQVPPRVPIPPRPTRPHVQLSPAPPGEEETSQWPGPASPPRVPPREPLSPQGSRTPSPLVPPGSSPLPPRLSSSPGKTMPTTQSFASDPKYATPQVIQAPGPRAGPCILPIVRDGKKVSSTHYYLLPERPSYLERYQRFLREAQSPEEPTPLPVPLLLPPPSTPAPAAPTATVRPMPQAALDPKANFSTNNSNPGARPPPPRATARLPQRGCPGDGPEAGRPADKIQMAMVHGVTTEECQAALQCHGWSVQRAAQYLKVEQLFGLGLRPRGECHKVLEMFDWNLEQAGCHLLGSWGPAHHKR
Method in brief: as §1

266 human kinases [6] = biological target: T2, 266 human kinases (Homo sapiens, UniProt Q08881); conditions: Itk(h); 100 μM
T2 sequence (Q08881 1-620): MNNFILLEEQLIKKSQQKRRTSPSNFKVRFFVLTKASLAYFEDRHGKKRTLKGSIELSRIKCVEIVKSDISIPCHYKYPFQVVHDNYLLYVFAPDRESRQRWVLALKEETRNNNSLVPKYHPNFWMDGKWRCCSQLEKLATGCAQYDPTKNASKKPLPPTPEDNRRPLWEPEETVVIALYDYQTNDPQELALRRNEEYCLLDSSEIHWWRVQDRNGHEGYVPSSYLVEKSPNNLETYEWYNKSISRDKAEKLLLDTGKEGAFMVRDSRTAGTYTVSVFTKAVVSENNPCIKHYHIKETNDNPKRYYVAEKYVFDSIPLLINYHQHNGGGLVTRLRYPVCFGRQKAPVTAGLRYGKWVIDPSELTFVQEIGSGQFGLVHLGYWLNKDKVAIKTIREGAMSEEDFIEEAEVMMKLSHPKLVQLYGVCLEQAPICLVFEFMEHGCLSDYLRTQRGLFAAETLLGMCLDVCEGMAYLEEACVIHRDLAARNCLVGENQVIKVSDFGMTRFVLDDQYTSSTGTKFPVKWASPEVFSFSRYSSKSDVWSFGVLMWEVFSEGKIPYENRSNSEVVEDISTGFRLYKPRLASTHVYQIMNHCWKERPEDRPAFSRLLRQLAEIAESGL
Method in brief: as §1

266 human kinases [7] = biological target: 266 human kinases (Homo sapiens, UniProt Q13555); conditions: CaMKIIγ(h); 100 μM
Method in brief: as §1

266 human kinases [8] = biological target: 266 human kinases (Homo sapiens, UniProt Q16566); conditions: CaMKIV(h); 100 μM
266 human kinases (Homo sapiens, UniProt Q16566), sequence (Q16566 whole entry): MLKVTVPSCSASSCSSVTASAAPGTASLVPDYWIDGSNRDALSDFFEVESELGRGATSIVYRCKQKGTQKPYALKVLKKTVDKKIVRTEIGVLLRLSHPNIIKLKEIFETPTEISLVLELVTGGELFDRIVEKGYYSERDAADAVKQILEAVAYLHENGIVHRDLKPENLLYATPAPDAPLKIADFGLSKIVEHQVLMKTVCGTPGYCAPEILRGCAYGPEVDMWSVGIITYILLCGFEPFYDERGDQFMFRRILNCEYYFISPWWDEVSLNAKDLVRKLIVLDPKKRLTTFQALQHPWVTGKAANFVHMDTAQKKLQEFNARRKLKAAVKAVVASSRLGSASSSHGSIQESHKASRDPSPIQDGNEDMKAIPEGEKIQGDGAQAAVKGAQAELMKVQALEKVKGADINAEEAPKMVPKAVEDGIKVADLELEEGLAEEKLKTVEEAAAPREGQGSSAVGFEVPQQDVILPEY
Method in brief: as §1

266 human kinases [9] = biological target: 266 human kinases (Homo sapiens, UniProt Q86UE8); conditions: TLK2(h); 100 μM
266 human kinases (Homo sapiens, UniProt Q86UE8), sequence (Q86UE8 whole entry): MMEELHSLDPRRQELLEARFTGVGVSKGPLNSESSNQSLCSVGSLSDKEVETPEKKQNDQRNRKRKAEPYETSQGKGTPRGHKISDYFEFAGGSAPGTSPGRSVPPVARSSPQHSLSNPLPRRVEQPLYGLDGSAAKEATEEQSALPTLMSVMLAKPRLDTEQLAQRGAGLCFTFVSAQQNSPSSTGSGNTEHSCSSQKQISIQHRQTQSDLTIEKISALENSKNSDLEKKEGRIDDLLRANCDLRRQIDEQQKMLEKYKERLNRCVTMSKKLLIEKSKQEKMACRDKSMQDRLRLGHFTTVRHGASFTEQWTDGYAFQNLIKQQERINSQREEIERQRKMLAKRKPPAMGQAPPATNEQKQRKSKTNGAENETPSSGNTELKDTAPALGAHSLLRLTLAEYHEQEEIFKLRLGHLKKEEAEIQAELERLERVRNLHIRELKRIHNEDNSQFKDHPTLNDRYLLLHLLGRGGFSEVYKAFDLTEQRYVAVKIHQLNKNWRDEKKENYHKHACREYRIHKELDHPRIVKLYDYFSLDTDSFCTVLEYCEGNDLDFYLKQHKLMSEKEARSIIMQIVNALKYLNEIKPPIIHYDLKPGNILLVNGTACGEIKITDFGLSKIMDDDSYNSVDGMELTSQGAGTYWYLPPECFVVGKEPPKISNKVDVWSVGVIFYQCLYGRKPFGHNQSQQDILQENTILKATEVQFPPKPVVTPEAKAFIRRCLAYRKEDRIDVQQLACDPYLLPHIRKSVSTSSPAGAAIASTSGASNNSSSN
Method in brief: as §1

266 human kinases [10] = biological target: 266 human kinases (Homo sapiens, UniProt Q92630); conditions: DYRK2(h); 100 μM
266 human kinases (Homo sapiens, UniProt Q92630), sequence (Q92630 whole entry): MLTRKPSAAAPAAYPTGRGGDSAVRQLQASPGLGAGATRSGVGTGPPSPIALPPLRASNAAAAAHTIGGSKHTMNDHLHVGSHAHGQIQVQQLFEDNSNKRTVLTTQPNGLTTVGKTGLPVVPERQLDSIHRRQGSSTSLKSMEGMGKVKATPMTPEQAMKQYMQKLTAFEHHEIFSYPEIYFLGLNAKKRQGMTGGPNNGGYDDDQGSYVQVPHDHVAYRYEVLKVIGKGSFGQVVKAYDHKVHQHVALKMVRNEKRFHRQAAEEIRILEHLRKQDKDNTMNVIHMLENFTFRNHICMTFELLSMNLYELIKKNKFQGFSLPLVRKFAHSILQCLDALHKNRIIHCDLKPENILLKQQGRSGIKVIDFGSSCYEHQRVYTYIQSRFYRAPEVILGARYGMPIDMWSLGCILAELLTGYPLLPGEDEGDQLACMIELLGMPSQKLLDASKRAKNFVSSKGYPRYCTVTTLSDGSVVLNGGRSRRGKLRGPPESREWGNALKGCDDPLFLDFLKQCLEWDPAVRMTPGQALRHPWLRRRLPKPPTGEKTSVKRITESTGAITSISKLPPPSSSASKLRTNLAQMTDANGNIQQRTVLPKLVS
Method in brief: as §1

266 human kinases [11] = biological target: 266 human kinases (Homo sapiens, UniProt Q9HC98); conditions: NEK6(h); 100 μM
Method in brief: as §1

266 human kinases [12] = biological target: 266 human kinases (Homo sapiens, UniProt Q9UPE1); conditions: MSSK1(h); 100 μM
Method in brief: as §1

266 human kinases [13] = conditions: for % activity: 100 μM; for off-target kinase inhibition: at 100 μM
Method in brief: as §1

| Sequence | % activity (266 human kinases [1]) | % activity (266 human kinases [2]) | % activity (266 human kinases [3]) | % activity (266 human kinases [4]) | % activity (266 human kinases [5]) | % activity (266 human kinases [6]) | % activity (266 human kinases [7]) | % activity (266 human kinases [8]) | % activity (266 human kinases [9]) | % activity (266 human kinases [10]) | % activity (266 human kinases [11]) | % activity (266 human kinases [12]) | % activity (266 human kinases [13]; PKCβII(h)) | % activity (266 human kinases [13]; PKG1β(h)) | off-target kinase inhibition (266 human kinases [13]) | % activity (266 human kinases [13]; MAPK1(h)) |
| --- | --- | --- | --- | --- | --- | --- | --- | --- | --- | --- | --- | --- | --- | --- | --- | --- |
| HRRIKAWLKKIKALARQLGVAA (mammal) [MMI-0500] | −1% | 337% | 42% | 94% | 64% | 7% | 3% | -1% | 133% | 127% | 49% | 22% | 3% | 24% | very limited off-target kinase inhibition |  |
| YARAAARQARAKALNRQLGVA (mammal) [MMI-0200] | 83% | 133% | 123% | 110% | 97% | 98% | 94% | 71% | 129% | 142% | 98% | 100% | 100% | 57% | very limited off-target kinase inhibition | 97% |
